Test results published in US20210388118A1 (ZHEJIANG SHIMAI PHARMACEUTICAL, published 2021).

Columns and labels:
[1] = target: T1, human EGFR on cells (HCT116, A549, A431, HT29) (human, UniProt P00533 25-1210); test: flow cytometry on A549 cells, Fab at 100 nM
T1 construct: whole, on cells; also called cell surface EGFR; cell-surface EGFR
Method: To measure the binding of SMET5 Fab to cell surface EGFR, about 5×10⁵ cells were incubated with 100 nM antibody on ice for 1 h. The cells were washed once with PBS containing 0.1% bovine serum albumin (PBSA) and resuspended in 200 μl PBSA. Then 5 μl anti-His-PE conjugate was added and incubated for 30 min. The cells were washed once with PBSA and then used for flow cytometry analysis.

[2] = target: T2, recombinant human EGFR (human, UniProt P00533 25-645); test: ELISA, recombinant human EGFR coated, Fab
T2 construct: Bought protein; construct not described; also called hEGFR
Method: (§1) ELISA was performed according to standard protocols. Briefly, recombinant human or cynomolgus EGFR was coated on Corning EIA/RIA high-binding 96-well plates (Corning Inc.) at 50 ng per well overnight at 4° C. and blocked with 3% nonfat milk in PBS (pH7.4). Fivefold serially diluted antibodies were added and incubated at room temperature for 2 hours. The plates were washed with PBS containing 0.05% Tween 20. Bound Fab and IgG1s were detected by HRP-conjugated anti-FLAG tag antibody and HRP-conjugated anti-human IgG (Fc-specific) antibody, respectively. The assay was developed at room temperature with TMB substrate (Sigma-Aldrich) and monitored at 450 nm with a microplate reader. The half-maximal binding (EC₅₀) was calculated by fitting the data to the Langmuir adsorption isotherm.

[3] = target: T2, recombinant human EGFR; test: ELISA, recombinant EGFR coated
Method: as §1

[4] = target: T1, human EGFR on cells (HCT116, A549, …); test: flow cytometry on A549 cells, 2 µg/mL
Method: To measure the binding of IgG1 s of SMET5 variants to cell surface EGFR, about 5×10⁵ cells were incubated with 2 μg mL⁻¹ antibodies on ice for 1 h. The cells were washed once with PBSA and resuspended in 200 μl PBSA. Then 5 μ1 goat F(ab′)2 anti-human IgG (γ)-FITC conjugate was added and incubated for 30 min. The cells were washed once with PBSA and then used for flow cytometry analysis.

[5] = target: T2, recombinant human EGFR; test: ELISA, recombinant human EGFR coated
Method: as §1

[6] = target: T3, recombinant cynomolgus EGFR (cynomolgus, UniProt A0A2K5WK39 25-645); test: ELISA, recombinant cynomolgus EGFR coated
T3 construct: Bought protein; construct not described
Method: as §1

Binder | binding result [2] | binding result [3] | binding result [4] | also measured
SMET5 Fab (Fab, V domains shown, Human Fab from a phage library, expressed in E. coli, His-tagged and detected by anti-FLAG; also called SMETS) VH: EVQLVETGGGVVQPGRSLRLSCAASGFTFSSYAMHWVRQAPGKGLEWVAVISYDGSNKYYADSVKGRFTISRDNSKNTLYLQMNSLRAEDTAVYYCARGYVARGDFDYWGQGTLVTVSS VL: DIQMTQSPSTLSASVGDRVTITCRASQTVDSWLAWYQQKPGKAPKLLIYATSSLQSGVPSRFSGSGSGTDFTLTISSLQPEDFATYYCQQGHIAPHTFGQGTTLEIK | binds | – | – | binding result [1]: binds
SMET5.3 Fab (Fab, V domains shown, His-tagged Fab) VH: EVQLVETGGGVVQPGRSLRLSCAASGFTFSSYAMHWVRQAPGKGLEWVAVISYDGSNKYYADSVKGRFTISRDNSKNTLYLQMNSLRAEDTAVYYCARGYVARGDFDYWGQGTLVTVSS VL: DIQLTQSPSTLSASVGDRVTITCRSNQTADSWLAWYQQKPGKAPNLLIYAASNLQSGVPSRFSGSGSGTDFTLTISSLQPEDFATYYCQQSYSTPFMFTFGQGTKLEIK | binds | – | – | –
SMET5 IgG1 (antibody, V domains shown, Human IgG1 from 293FS cells; also called SMETS IgG1) VH: EVQLVETGGGVVQPGRSLRLSCAASGFTFSSYAMHWVRQAPGKGLEWVAVISYDGSNKYYADSVKGRFTISRDNSKNTLYLQMNSLRAEDTAVYYCARGYVARGDFDYWGQGTLVTVSS VL: DIQMTQSPSTLSASVGDRVTITCRASQTVDSWLAWYQQKPGKAPKLLIYATSSLQSGVPSRFSGSGSGTDFTLTISSLQPEDFATYYCQQGHIAPHTFGQGTTLEIKR | – | binds | binds | –
SMET5.3 IgG1 (antibody, V domains shown, Human IgG1 from 293FS cells) VH: EVQLVETGGGVVQPGRSLRLSCAASGFTFSSYAMHWVRQAPGKGLEWVAVISYDGSNKYYADSVKGRFTISRDNSKNTLYLQMNSLRAEDTAVYYCARGYVARGDFDYWGQGTLVTVSS VL: DIQLTQSPSTLSASVGDRVTITCRSNQTADSWLAWYQQKPGKAPNLLIYAASNLQSGVPSRFSGSGSGTDFTLTISSLQPEDFATYYCQQSYSTPFMFTFGQGTKLEIKR | – | binds | binds | –
SMET5.4 Fab (Fab, V domains shown, His-tagged Fab) VH: EVQLVETGGGVVQPGRSLRLSCAASGFTFSSYAMHWVRQAPGKGLEWVAVISYDGSNKYYADSVKGRFTISRDNSKNTLYLQMNSLRAEDTAVYYCARGYVARGDFDYWGQGTLVTVSS VL: DIQLTQSPSSVSASVGDRVTITCRASQGISSWLAWYQQKPGKAPKLLIYAASALQSGVPSRFSGSGSGTEFTLTIYDLQPDDFATYFCQQYDTFLWTFGQGTKVEIK | binds | – | – | –
SMET5.2 IgG1 (antibody, V domains shown, Human IgG1 from 293FS cells) VH: EVQLVETGGGVVQPGRSLRLSCAASGFTFSSYAMHWVRQAPGKGLEWVAVISYDGSNKYYADSVKGRFTISRDNSKNTLYLQMNSLRAEDTAVYYCARGYVARGDFDYWGQGTLVTVSS VL: DVVMTQSPSTLSASVGDRVTITCRASQSMSRWLAWYQQKPGKGPKLLIYATSTLQSGVPSRFSGSGSGTEFTLTISSLQPEDFATYYCQQLDSFPFSFTFGPGTKVDLKR | – | – | – | EC50 [5]: 1.4 nM; EC50 [6]: 0.76 nM
